Experimental data published in patent US20200123228A1.
Where no end group is shown, it is not given here.

Molecular target: bovine collagen (Symatese), polymerized gel (bovine)
Experiment: retention on polymerized bovine collagen gel, antibody loaded at 10 µg/mL, released antibody measured by ELISA

B1: PlGF-2123-144-αPD-L1 (clone 10F.9G2) (antibody, part only; not given: anti-PD-L1 antibody, part only)
peptide: RRRPKGRGKRRREKQRPTDCHL
modifications: not fully specified (residue 20); also: antibody conjugate, average 6 peptides per antibody
Binder B1 has a % of bound antibody released by plasmin digestion after buffer changes of 47.1%.
